Article PMC3408433, “Selective Cytotoxicity of Amidinopiperidine Based Compounds Towards Burkitt’s Lymphoma Cells Involves Proteasome Inhibition” (PLoS ONE, 2012)

System: Cc1cc(=O)oc2cc(NC(=O)[C@H](Cc3ccccc3)NC(=O)[C@@H]3CCCN3C(=O)[C@H](C)NC(=O)[C@H](C)NC(=O)CCC(=O)O)ccc12
Experiment: purified protein, by the assay type
Conditions: other: mean of six independent experiments, pH 7.8, 30°C
Procedure: In short, a 1 nM solution of α-chymotrypsin was mixed with various concentrations of the substrate Suc-Ala-Ala-Pro-Phe-AMC. All the solutions were prepared in 144 mM Tris–HCl, pH 7.8. Substrate hydrolysis was monitored at 30°C on an automated Tecan Safire^2 microplate reader (Tecan, Mannedorf/Zürich, Switzerland). The initial rates of the reactions (ΔF/Δt) were measured immediately after the addition of the substrate (within 200 s) and plotted versus substrate concentration with nonlinear regression to fit a Michaelis-Menten plot. The curve fit and kinetic parameters (Km and v max) were calculated using GraphPad PRISM version 5.0 software (GraphPad Software, Inc., CA, USA). […] The initial velocities of the hydrolysis reactions were measured under the same conditions as described for the determination of Km. 50 µl of α-chymotrypsin solution was added to 50 µl of each inhibitor solution (prepared in 144 mM Tris–HCl, pH 7.8; final concentration 1 nM) and incubated at 30°C for 15 min. The reaction was initiated with the addition of 100 µl of substrate. […] The Ki values were determined as mean values of all measurements.

Substance: α-chymotrypsin (Bos taurus)
- Km: 66 ± 9 µM
